According to US20060287509A1 (University of California, published 2006):

B1: C6ML3-1 (scFv)
scFv: QVQLLQSGAELKKPGESLKISCKGSGYSFTSYWIAWVRQMPGKGLEYMGLIYPGDSDTKYSPSFQGQVTISVDKSVSTAYLQWSSLKPSDSAVYFCARHDVGYCSSSNCAKWPEYFQHWGQGTLVTVSSGGGGSGGGGSGGGGSQSVLTQPPSVSAAPGQKVTISCSGSSSNIGNNYVSWYQQLPGTAPKLLIYGHTNRPAGVPDRFSGSKSGTSASLAISGFRSEDEADYYCAAWDYSLWGWVFGGGTKLTVLG
notes: C6.5 with this VL CDR3; C-terminal myc and His6 tags
B2: C6ML3-2 (scFv)
scFv: QVQLLQSGAELKKPGESLKISCKGSGYSFTSYWIAWVRQMPGKGLEYMGLIYPGDSDTKYSPSFQGQVTISVDKSVSTAYLQWSSLKPSDSAVYFCARHDVGYCSSSNCAKWPEYFQHWGQGTLVTVSSGGGGSGGGGSGGGGSQSVLTQPPSVSAAPGQKVTISCSGSSSNIGNNYVSWYQQLPGTAPKLLIYGHTNRPAGVPDRFSGSKSGTSASLAISGFRSEDEADYYCAAWDHSLSGWVFGGGTKLTVLG
notes: as for B1
B3: C6ML3-3 (scFv)
scFv: QVQLLQSGAELKKPGESLKISCKGSGYSFTSYWIAWVRQMPGKGLEYMGLIYPGDSDTKYSPSFQGQVTISVDKSVSTAYLQWSSLKPSDSAVYFCARHDVGYCSSSNCAKWPEYFQHWGQGTLVTVSSGGGGSGGGGSGGGGSQSVLTQPPSVSAAPGQKVTISCSGSSSNIGNNYVSWYQQLPGTAPKLLIYGHTNRPAGVPDRFSGSKSGTSASLAISGFRSEDEADYYCATWDYALSGWVFGGGTKLTVLG
notes: as for B1
B4: C6ML3-4 (scFv)
scFv: QVQLLQSGAELKKPGESLKISCKGSGYSFTSYWIAWVRQMPGKGLEYMGLIYPGDSDTKYSPSFQGQVTISVDKSVSTAYLQWSSLKPSDSAVYFCARHDVGYCSSSNCAKWPEYFQHWGQGTLVTVSSGGGGSGGGGSGGGGSQSVLTQPPSVSAAPGQKVTISCSGSSSNIGNNYVSWYQQLPGTAPKLLIYGHTNRPAGVPDRFSGSKSGTSASLAISGFRSEDEADYYCASWEYSLWGWVFGGGTKLTVLG
notes: as for B1
B5: C6ML3-6 (scFv)
scFv: QVQLLQSGAELKKPGESLKISCKGSGYSFTSYWIAWVRQMPGKGLEYMGLIYPGDSDTKYSPSFQGQVTISVDKSVSTAYLQWSSLKPSDSAVYFCARHDVGYCSSSNCAKWPEYFQHWGQGTLVTVSSGGGGSGGGGSGGGGSQSVLTQPPSVSAAPGQKVTISCSGSSSNIGNNYVSWYQQLPGTAPKLLIYGHTNRPAGVPDRFSGSKSGTSASLAISGFRSEDEADYYCASWDYSLSGWVFGGGTKLTVLG
notes: as for B1
B6: C6ML3-8 (scFv)
scFv: QVQLLQSGAELKKPGESLKISCKGSGYSFTSYWIAWVRQMPGKGLEYMGLIYPGDSDTKYSPSFQGQVTISVDKSVSTAYLQWSSLKPSDSAVYFCARHDVGYCSSSNCAKWPEYFQHWGQGTLVTVSSGGGGSGGGGSGGGGSQSVLTQPPSVSAAPGQKVTISCSGSSSNIGNNYVSWYQQLPGTAPKLLIYGHTNRPAGVPDRFSGSKSGTSASLAISGFRSEDEADYYCAAWDHLRWGWVFGGGTKLTVLG
notes: as for B1
B7: C6ML3-10 (scFv)
scFv: QVQLLQSGAELKKPGESLKISCKGSGYSFTSYWIAWVRQMPGKGLEYMGLIYPGDSDTKYSPSFQGQVTISVDKSVSTAYLQWSSLKPSDSAVYFCARHDVGYCSSSNCAKWPEYFQHWGQGTLVTVSSGGGGSGGGGSGGGGSQSVLTQPPSVSAAPGQKVTISCSGSSSNIGNNYVSWYQQLPGTAPKLLIYGHTNRPAGVPDRFSGSKSGTSASLAISGFRSEDEADYYCAAWEDPWYGWVFGGGTKLTVLG
notes: as for B1
B8: C6ML3-11 (scFv)
scFv: QVQLLQSGAELKKPGESLKISCKGSGYSFTSYWIAWVRQMPGKGLEYMGLIYPGDSDTKYSPSFQGQVTISVDKSVSTAYLQWSSLKPSDSAVYFCARHDVGYCSSSNCAKWPEYFQHWGQGTLVTVSSGGGGSGGGGSGGGGSQSVLTQPPSVSAAPGQKVTISCSGSSSNIGNNYVSWYQQLPGTAPKLLIYGHTNRPAGVPDRFSGSKSGTSASLAISGFRSEDEADYYCAAWDYALWGWVFGGGTKLTVLG
notes: as for B1
B9: C6ML3-12 (scFv)
scFv: QVQLLQSGAELKKPGESLKISCKGSGYSFTSYWIAWVRQMPGKGLEYMGLIYPGDSDTKYSPSFQGQVTISVDKSVSTAYLQWSSLKPSDSAVYFCARHDVGYCSSSNCAKWPEYFQHWGQGTLVTVSSGGGGSGGGGSGGGGSQSVLTQPPSVSAAPGQKVTISCSGSSSNIGNNYVSWYQQLPGTAPKLLIYGHTNRPAGVPDRFSGSKSGTSASLAISGFRSEDEADYYCAAWDYSRSGWVFGGGTKLTVLG
notes: as for B1
B10: C6ML3-13 (scFv)
scFv: QVQLLQSGAELKKPGESLKISCKGSGYSFTSYWIAWVRQMPGKGLEYMGLIYPGDSDTKYSPSFQGQVTISVDKSVSTAYLQWSSLKPSDSAVYFCARHDVGYCSSSNCAKWPEYFQHWGQGTLVTVSSGGGGSGGGGSGGGGSQSVLTQPPSVSAAPGQKVTISCSGSSSNIGNNYVSWYQQLPGTAPKLLIYGHTNRPAGVPDRFSGSKSGTSASLAISGFRSEDEADYYCAAWDATLWGWVFGGGTKLTVLG
notes: as for B1
B11: C6ML3-14 (scFv)
scFv: QVQLLQSGAELKKPGESLKISCKGSGYSFTSYWIAWVRQMPGKGLEYMGLIYPGDSDTKYSPSFQGQVTISVDKSVSTAYLQWSSLKPSDSAVYFCARHDVGYCSSSNCAKWPEYFQHWGQGTLVTVSSGGGGSGGGGSGGGGSQSVLTQPPSVSAAPGQKVTISCSGSSSNIGNNYVSWYQQLPGTAPKLLIYGHTNRPAGVPDRFSGSKSGTSASLAISGFRSEDEADYYCAAWDDPLWGWVFGGGTKLTVLG
notes: as for B1
B12: C6ML3-15 (scFv)
scFv: QVQLLQSGAELKKPGESLKISCKGSGYSFTSYWIAWVRQMPGKGLEYMGLIYPGDSDTKYSPSFQGQVTISVDKSVSTAYLQWSSLKPSDSAVYFCARHDVGYCSSSNCAKWPEYFQHWGQGTLVTVSSGGGGSGGGGSGGGGSQSVLTQPPSVSAAPGQKVTISCSGSSSNIGNNYVSWYQQLPGTAPKLLIYGHTNRPAGVPDRFSGSKSGTSASLAISGFRSEDEADYYCAAWDRPLWGWVFGGGTKLTVLG
notes: as for B1
B13: C6ML3-19 (scFv)
scFv: QVQLLQSGAELKKPGESLKISCKGSGYSFTSYWIAWVRQMPGKGLEYMGLIYPGDSDTKYSPSFQGQVTISVDKSVSTAYLQWSSLKPSDSAVYFCARHDVGYCSSSNCAKWPEYFQHWGQGTLVTVSSGGGGSGGGGSGGGGSQSVLTQPPSVSAAPGQKVTISCSGSSSNIGNNYVSWYQQLPGTAPKLLIYGHTNRPAGVPDRFSGSKSGTSASLAISGFRSEDEADYYCASWDRPLWGWVFGGGTKLTVLG
notes: as for B1
B14: C6ML3-23 (scFv)
scFv: QVQLLQSGAELKKPGESLKISCKGSGYSFTSYWIAWVRQMPGKGLEYMGLIYPGDSDTKYSPSFQGQVTISVDKSVSTAYLQWSSLKPSDSAVYFCARHDVGYCSSSNCAKWPEYFQHWGQGTLVTVSSGGGGSGGGGSGGGGSQSVLTQPPSVSAAPGQKVTISCSGSSSNIGNNYVSWYQQLPGTAPKLLIYGHTNRPAGVPDRFSGSKSGTSASLAISGFRSEDEADYYCASWDHSLWGWVFGGGTKLTVLG
notes: as for B1
B15: C6ML3-29 (scFv)
scFv: QVQLLQSGAELKKPGESLKISCKGSGYSFTSYWIAWVRQMPGKGLEYMGLIYPGDSDTKYSPSFQGQVTISVDKSVSTAYLQWSSLKPSDSAVYFCARHDVGYCSSSNCAKWPEYFQHWGQGTLVTVSSGGGGSGGGGSGGGGSQSVLTQPPSVSAAPGQKVTISCSGSSSNIGNNYVSWYQQLPGTAPKLLIYGHTNRPAGVPDRFSGSKSGTSASLAISGFRSEDEADYYCAAWDGTLWGWVFGGGTKLTVLG
notes: as for B1
B16: C6-B1D6 (scFv)
scFv: QVQLLQSGAELKKPGESLKISCKGSGYSFTSYWIAWVRQMPGKGLEYMGLIYPGDSDTKYSPSFQGQVTISVDKSVSTAYLQWSSLKPSDSAVYFCARHDVGYCTDRTCAKWPEWMYPWGQGTLVTVSSGGGGSGGGGSGGGGSQSVLTQPPSVSAAPGQKVTISCSGSSSNIGNNYVSWYQQLPGTAPKLLIYGHTNRPAGVPDRFSGSKSGTSASLAISGFRSEDEADYYCASWDYTLSGWVFGGGTKLTVLG
notes: C6MH3-B1 with the library D residues of C6MH3-D6
B17: C6-B47D1 (scFv)
scFv: QVQLLQSGAELKKPGESLKISCKGSGYSFTSYWIAWVRQMPGKGLEYMGLIYPGDSDTKYSPSFQGQVTISVDKSVSTAYLQWSSLKPSDSAVYFCARHDVGYCTDRSCAKWPEWLHVWGQGTLVTVSSGGGGSGGGGSGGGGSQSVLTQPPSVSAAPGQKVTISCSGSSSNIGNNYVSWYQQLPGTAPKLLIYGHTNRPAGVPDRFSGSKSGTSASLAISGFRSEDEADYYCASWDYTLSGWVFGGGTKLTVLG
notes: C6MH3-B47 with the library D residues of C6MH3-D1
B18: C6-B47D2 (scFv)
scFv: QVQLLQSGAELKKPGESLKISCKGSGYSFTSYWIAWVRQMPGKGLEYMGLIYPGDSDTKYSPSFQGQVTISVDKSVSTAYLQWSSLKPSDSAVYFCARHDVGYCTDRSCAKWPEWLGVWGQGTLVTVSSGGGGSGGGGSGGGGSQSVLTQPPSVSAAPGQKVTISCSGSSSNIGNNYVSWYQQLPGTAPKLLIYGHTNRPAGVPDRFSGSKSGTSASLAISGFRSEDEADYYCASWDYTLSGWVFGGGTKLTVLG
notes: C6MH3-B47 with the library D residues of C6MH3-D2
B19: C6-B47D3 (scFv)
scFv: QVQLLQSGAELKKPGESLKISCKGSGYSFTSYWIAWVRQMPGKGLEYMGLIYPGDSDTKYSPSFQGQVTISVDKSVSTAYLQWSSLKPSDSAVYFCARHDVGYCTDRSCAKWPEWLDNWGQGTLVTVSSGGGGSGGGGSGGGGSQSVLTQPPSVSAAPGQKVTISCSGSSSNIGNNYVSWYQQLPGTAPKLLIYGHTNRPAGVPDRFSGSKSGTSASLAISGFRSEDEADYYCASWDYTLSGWVFGGGTKLTVLG
notes: C6MH3-B47 with the library D residues of C6MH3-D3
B20: C6-B47D5 (scFv)
scFv: QVQLLQSGAELKKPGESLKISCKGSGYSFTSYWIAWVRQMPGKGLEYMGLIYPGDSDTKYSPSFQGQVTISVDKSVSTAYLQWSSLKPSDSAVYFCARHDVGYCTDRSCAKWPEWMQMWGQGTLVTVSSGGGGSGGGGSGGGGSQSVLTQPPSVSAAPGQKVTISCSGSSSNIGNNYVSWYQQLPGTAPKLLIYGHTNRPAGVPDRFSGSKSGTSASLAISGFRSEDEADYYCASWDYTLSGWVFGGGTKLTVLG
notes: C6MH3-B47 with the library D residues of C6MH3-D5

The binders below were run against T1, c-erbB-2 ECD with a Ser-Gly-His6 C-terminal fusion (UniProt P04626 23-652) (assay: SPR (BIAcore)).
T1 construct: extracellular domain; expressed from CHO cells, IMAC purified; coupled to a CM5 chip, adsorbed to polystyrene, or biotinylated and captured on avidin; also called c-erbB-2 extracellular domain; biotinylated c-erbB-2 ECD
B1 was tested, and the kon was 300000 M⁻¹ s⁻¹.
Work on B2 yielded a kon of 710000 M⁻¹ s⁻¹.
For B3, the kon was 460000 M⁻¹ s⁻¹.
Binder B4 has a kon of 400000 M⁻¹ s⁻¹.
B5 gave a kon of 590000 M⁻¹ s⁻¹.
B6 gave a kon of 650000 M⁻¹ s⁻¹.
Binder B7 has a kon of 610000 M⁻¹ s⁻¹.
For B8, the kon was 610000 M⁻¹ s⁻¹.
B9 was tested, and the kon was 450000 M⁻¹ s⁻¹.
B10 showed a kon of 870000 M⁻¹ s⁻¹.
Binder B11 has a kon of 770000 M⁻¹ s⁻¹.
In the case of B12, the koff is reported as 0.0013 s⁻¹ and the kon is reported as 590000 M⁻¹ s⁻¹.
Work on B13 yielded a kon of 670000 M⁻¹ s⁻¹.
Work on B14 yielded a kon of 670000 M⁻¹ s⁻¹.
In the case of B15, the kon is reported as 1.29e+06 M⁻¹ s⁻¹.

Each binder was assayed against T1, c-erbB-2 ECD with a Ser-Gly-His6 … (assay: from SPR (BIAcore) Kd values).
Work on B16 yielded a ΔΔGI of -0.16 kcal/mol.
B17 gave a ΔΔGI of -0.11 kcal/mol.
With B18 the ΔΔGI was 0.62 kcal/mol.
In the case of B19, the ΔΔGI is reported as 0.29 kcal/mol.
For B20, the ΔΔGI was -0.01 kcal/mol.
